Results published in the domain aggregation screens of Martell et al. (2025).

Assay: soluble fraction after stress (log2 fold change); higher = more stays soluble; pooled small domains, quantitative proteomics
Settings: stress: 75 degC
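Note: 20 min heating vs room temperature control held 20 min.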

Sequence | soluble fraction (log2)
HMDITTIIADVPGPKTQIKVDIKNTSLHIFGGMNFKKEIDIGDNKEIINIKYINGTLTVKLKT | 0.231
HMDIVGAINKIESMKQDRYLAMHPYSITHSADGYYRTYLPADDGKRKQIKKKSKSDLEKVVIDYWTKRS | -0.242
HMDIVKVYTTARAGETLASVAKRTGVDVARLAQWNDIPLKRAKQKLKTGKALALWVQREHASAYSNAPP | -1.78
HMDIVQLSEKINVMKMEIPAQAIGKTVLEVNFRARFDLNIIAIENGGKLVEVIKPDYVFREGDILFLSGS | -3.76
HMDIYENIDKELSKQGKSRRKLAIAAGIPPSTFQSMMERKRGLSVENLRKIAEVLNLKWYDLL | -0.985
HMDIYKKFIIPATYFGSRLDHVLSELLPELSRSKIQNMIKQNLVMINGNHAAQKQKVVGDEEIIIKDI | -0.483
HMDKAALGQKLRQARLDKGYTQQSLSEKADIGEVYLSEIERGLKMPSMNLFIKLITALDISADYILR | -2.94
HMDKDTFGEFENVKLTEEEYNKLVEKLGENNTKLMIEELSTGIASKGYKYKSHYATILSWSRRRVTKLQER | 0.0858
HMDKEIKILKEKRLDDVQQAIRELSPQKRRVVEMKLYHNSTNQEVADKLAISVNTVKSLYTSALHDLRRIL | -0.953
HMDKESQTMFRLLTGVSGVGPKVGLAILSVLSPDRVVLAISAGDHKAFTAASGVGPKLGQRIVLELKDKVG | -3.07
HMDKEVLYVTVNDKKVKLDGKNHIFIDIFNYIDFDIKKPNGSIVLKLNGKNAGYMDEIKDGDKIEIYWDK | -0.535
HMDKEVMEAVLRILYDDDFNPDQRDAILYFFVQELDQRTISEITGAKIGTVKKRIHDGLKKLRQKLAKEDL | -2.04
HMDKGEQILQQALDKLPPKQRQVFEMRYFDEMPYREIATITETSEGALKASYHHAVKKIQQYISHL | -0.604
HMDKGQRGWINLVSVPTARVIIDGYDTGHETPLYGYEVERGKRKVTLISLDGTYERTYEIRIEPGTTTRVR | -0.779
HMDKIEVVEVDMSKPYEDMTVTELQNVILDKLASNGPVTNQMKKDVSENIYHDSLVNWAKSF | -0.0122
HMDKIYVYTTRGQVIELPRGSTAIDFAYKIQTDIGNMIIAAIVNDKLVDANYVLHNKDRVKIVTS | -2.57
HMDKLNKELVSRMMDDAAWKELSKDFPWTEQLLEKYMNYVDWKEISRNYNVVWTKSLLEKFKHRLDWHE | -2.32
HMDKMIFFKNKENNDDNQLVKIGALLIHAAKIDEDFSQEEENIIKQTLINFGAGNKNINEIIEKAKKME | 0.0233
HMDKMVAVPNVRGIEASEAEATLIAQGLFVEVEKSDSEDANVAYGEVYAQTPKAGNRVEEGTTITIKVRTE | -0.0615
HMDKNNLHSVLQDVPGIGPKRMKELMRAFGSVEGMKKAGLEELAAVKGMNHKAAEALIQFFR | 0.163
HMDKQGGWLTMAEAAEKLGVTHHVIRRLIKEKILPAEQVMRHAPHQIRIVDLESDAVAEALRHR | -0.356
HMDKVVGSAGDVTSRITANSGEVKIDGQIWQARSYDETIAIEAGEKIEVFDLDGITLIVYPI | -0.833
HMDLAENWKDDADITLAEYNAIRSRYKPGKLHRDTEFMIARDMLIRPETVLAIAHSRFSNVHTHPV | -0.787
HMDLDEELDFLSDADESATKLDLARAYIDMGDKDGARDILAEVLEEGRSEQKREAQALLDSI | 0.249
HMDLDPVEKLHLLSQLYVGQLKGSFVVKEKNQKTTIIGEVRELSHQTLSIRTNEGYRLIEVADILEIRLWE | -0.216
HMDLDYSGIMNVLNQKYHITFYNNKKIQNLMPKLMIIMGYNSIINEIGHSKSLKALINSFEEKLKSYILT | -3.19

Sequence | soluble fraction (log2)
HMDLEGLSNKELVTLRGQIQDDLNKWATEVGIIDPKNRPDDYNRALQSLEDAKRQRSAIDAKL | 0.0844
HMDLEIENYDLREILNLFKLDYNFDNVDLKRAQKIALKTHPDKSNLPKEYFMFFMKAFQIVQQIYYYRY | -0.441
HMDLFREERRQAILDWLATAGRVSVAELSASFGVSEVTVRADLQALADRRLVVRTHGGAMMAG | -2.1
HMDLHSQVFESYERKIREVLREGPLTFEEILHAFALKRHETVAQVITYLMDEGKMSDSGDGKLIYSG | -0.86
HMDLIISDIRMPEMRGDDFLEWIKANELFKHIPVIMLSSEDSTTERIRLLEIGAEDYIVKPFNPMELKIR | -0.495
HMDLLIFSPSLGQHVRDLKRVIDRLHQHGIPVRWQKAKLLREEIEYIGWTWKSGGLIDPTNV | -0.672
HMDLMSTNEKLLYTMRYLISKSLDGAITEEEIRRLDRLIIENSQARAYYVEYLQIHTHLRKLMQQNPELK | -2.39
HMDLRIIKTKKAIKTAFLNLLKENKYHNITISAISETALINRKTFYAHYETKDELYADVIEDALRVLSP | 0.114
HMDLRIKEIMSERNVTSAWLAEKVGISKVAVSNIVTGKSSPSLDNLLKIADALNVSITTLIG | -2.6
HMDLRYKVQYNFIDQGMMTKDELLKFSLNQDDVSKIAVFDNDSKQWKEIYAITEISEKLGIS | -0.452
HMDLTIEQTTVLGKRLFSNALNSLGKKQRNIKKDAIESLLKRMNLKDMDQLYESIGIGDKSPLLMAQILL | -0.156
HMDLVIALNSRIRVIREPFFGKLGTVIDLPHKLHKMESGTMTRVAKIKFDDRTEEIIPRTNLEVILS | -3.54
HMDLYEILGVRRGAGGGEIRRAYRRLARRYHPDVNPGDREAQARYALITRAFETLNDPERRRAYDAGVP | -0.817
HMDMAENEEYKVIMGQAQQLAEQFFPADDNTRRIMLGQLKLENYSLYLLTKQILDEATKGQAAAAN | -0.264
HMDNFDVVLTSPGDQKVQVIKAVRSITGLGLKEAKDLVDGAPNTVKEGVKKLDAEEMLKQLTEAGATGEL | 0.35
HMDNFQFIGYSQQQGQIAVAWIKSLDNGRLVRVEVSDSLEGWRVSDISAQGVNLTKGQQWLMLKRL | -1.74
HMDNIGKTLGQNQTRQYKVAYAEAAKLPAIIMGLVPLPKPPVVDERLRSLYVTATPEQHRQIETLMNRI | -0.114
HMDNITIYSSNGKIYVNAIGGEKIELFNITGQKVAEKVAVSGINVLDAVYDITLVKVGSKVVKVV | -2.36
HMDNLATRILKELNNNDGFLPLSDKSQPEAIYQAFGISKKSYKTAIGTLYKKRLITISENGIQLTD | -0.67
HMDNLSQMQERILEFIIRSKDQSGYTPSLREIGDEVGLKAVSSVKYQLEQLKDAHYISFDANTARAIRVLI | -1.68
HMDNMFVEERQALIYEELQSNGRVRVKDLSKKFNVSEDLIRKDLNVLEKEGKLRKIYGGAVLAK | 0.237
HMDNNNQAAFMGALNSLKEYAKVNGNIVTKQDVESYFKDLGLDDSKYQMITGYLLANDITVKG | 0.181
HMDNQYGVYSDEKNNVEIHWKRIDHPSVAKDHLDIEAYQNGKRVDINNQQADHYRYLINQEMNE | 0.201
HMDPAFAQHHDRALSILHSRGYEVHDSDTDLHWARPVLEFEAYKGSLEYKIVMSYPDLNIIEERVD | -0.906
HMDPASYEARLSTLREQGAQQLDPVRFQYLATLAQRLPTQTPGVALILANKLRAGLSDYEQRLSEAGS | -0.0569
HMDPDAIVSKGQLGALNNAIGRFIAQGGSQTVVDKGIAKRNPNAKKPADLTNSQAESLEAAILKILNG | 0.73

Sequence | soluble fraction (log2)
HMDPLGALSDRERQVLALIGQGHGLQAIADQLGVSYKTAANTSSALKKKLGVDGINGLMKFALDSG | -0.443
HMDPLGGFTKGDVDMDGRVAVNDAVMVLKNAIKLMELDTQQLMLADADNDGKITVNDAVMILKKAIKLID | -0.149
HMDPTLFRLNILEGLGLEKKNLTSEEQEQLRFLYEHFSMKEILMTIDYIKKLNLEKSIVNLYRLMQHP | -0.823
HMDPTVEENKLNPRDLLIIQRVKEGRTNKEIAEELNVAEITVKKQLSSLYQRYKVHNRNQLLLALD | -0.285
HMDPVQLEVIKKLNLLNAQKPKDIYALRDVLSEMFPQSDIRLLLKELLDKGYIYWNGHEVIYSHEMF | -0.272
HMDPYEYQLELEKLINNATELNKKYNYDPLKDKILAADAVKNSLETYVLQNYIVALENEIKQTLNQYQIL | -0.685
HMDQNDYMLTRIRNGQMRNKVSVSMPASKIKSAIAAVLKDEGYIENFALNDSSGKPSLIVNLKYYAGQPV | -0.0681
HMDQPVIDVREFGARGDGKQDDAPAIQAAVRLAEQLGGGRVVVPATREFYLLGSTIRIRGHHVTLTGPGAR | 0.0456
HMDRAIAAHLEARVRDALKQLSPEQTRVIELFFFDNKTHAEIENDLKIPLGTVKSRLRLALNKLRASL | -2.55
HMDRASGEEEALKEAEDAISRVWEFDGPVELNPQNSYLRRLQHELASRYNVKSVSIGQEPNRRVVYYK | -0.163
HMDRDPAEAGYDDGYLSGNTDGMNNDERATYDESSQYPTPDERQSYAAAYRRGYAAGFADGRKQAV | -0.000174
HMDREIVEAIVPLEAAGKRFDAALAEMFPEFSRSRLTEWIKAGDALLAGEIVKPKVSVRGGEAVSLSIRV | -0.765
HMDRELVALVQKALSQLSEQQRRIVELHVMEGMKYLEIADLLQLSENTVRTHLKRAYKILRENH | -1.98
HMDRERFIKLGREIARAAFENVGKKATDKVLNSAAKKLRLEDGDEVLARLGSAEIEARSVVQAVYPDLI | 0.286
HMDRKARRKYIEQVVNDRKIETQEELLKLLTEAGFETTQATISRDIHALNIVKANDGDGHTHYVQLH | -0.0596
HMDRKEEIIIVTLKLASQIGLSNVSMEQIAKQVGIKKPSLYNHFKSKDEIIDAMYEYLREKSKN | -2.16
HMDRMIPPYGLEVTYDKTTHIIFPSAVRYVDLGSPNLIAGKADGSENVIRVKATRKNFREETNMSVITE | 0.152
HMDRPEPLYIVNGKEVQTLEEAFELGRTLGSAKKGTQVRLRRLLPEEGVEKYGEKGRNGVFEFMVSA | 0.269
HMDRPLRTKEHFARFAGEQVVVKTSSPIDGRSSFTGTLEGMEGDDVIVEVDGSRIAIGYSLIKRAHVVG | 0.00178
HMDRRFFVAEENYKRLDVFLSERMEEFTRSRIKKLIDEGHVELNGKSAKAGAEIRPGDEVAAEIPEVKE | 0.195
HMDRRIDIANAVKTALGSLPERQKTAIVLVHYEGFSGAETAKLLGISVEAVESLLARARRNLRQTLGP | -0.471
HMDRTIGEIGLVTETIDSTLESGRVMVDGLSWKARTSDNTVLEAGTRVQVKEIHGVTLTVEKA | 0.292
HMDRTLTYTVSIEESDLRADQFLSRRGFSSHLLTRLRKNMEHLLINGTPSRTNTHLHEGDILTVHIVEE | -2.19
HMDRWTPLIVAVLIEGSHRFGELRSAIGGITPKVLTETLRSMERDGLVTRDQVPGVPPRVDYALTPLG | -0.462
HMDRYVDEEKRFYWRSGEAYLNFSKYKDRSLAEVATVDPGFLRWMMEADFSPETKQIVERALEGEFPQKK | -0.29
